From patent US20170355757A1

Molecular target: human C5aR1 (human) (UniProt P21730)
Assay: cell-based or functional assay

Chain of human C5aR1 (human) (P21730 whole entry): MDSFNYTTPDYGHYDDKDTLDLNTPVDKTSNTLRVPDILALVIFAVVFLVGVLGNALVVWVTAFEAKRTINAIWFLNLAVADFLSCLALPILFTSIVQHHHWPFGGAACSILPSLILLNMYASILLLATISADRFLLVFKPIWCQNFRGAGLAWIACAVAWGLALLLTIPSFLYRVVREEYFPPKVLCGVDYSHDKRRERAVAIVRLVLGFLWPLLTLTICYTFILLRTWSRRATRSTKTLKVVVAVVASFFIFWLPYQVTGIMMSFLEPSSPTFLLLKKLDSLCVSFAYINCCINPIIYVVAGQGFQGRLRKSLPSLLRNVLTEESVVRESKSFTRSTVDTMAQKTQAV

EC50[M] hC5a, luciferase reporter in HEK293/Gα16/hC5aR1/NFAT-luc cells: 3.9e-10 M
Substance: hC5a (from UniProt P01031 678-751) (ligand)
